± gives the uncertainty stated by the source.
Experiment: protein stability index of a GFP-peptide fusion (yeast GPS) (PSI 1-4); higher = more stable; sorted into four equal gates, so the index is relative within each strain
Summary of the method: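 Sequencing reads from sorted gates were used to score each peptide. The library consisted of tiled 17-residue yeast protein peptides fused downstream of GFP on a Cherry-expressing plasmid, pooled and carried in yeast. Mid-log cultures in leucine-free medium were split into four equal gates by GFP/Cherry ratio, and each gate's plasmids were PCR-amplified and Illumina-sequenced. The protein stability index adds up, over all gates, the read frequency multiplied by the gate number.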

Sequence	protein stability index (pdr5∆)	protein stability index (san1∆)	protein stability index (ubr1∆)	protein stability index (doa10∆)
LALINYGRQELADDLIT [RPN2]	1.82 ± 0.26	1.57 ± 0.28	1.49 ± 0.14	
LANLIRDALRNIKNTNE [RRP6]	2.51 ± 0.055	2.63 ± 0.055	2.49 ± 0.036	2.37 ± 0.045
LASAIASGLLRAYLSHS [CSN12]	1.5 ± 0.052	1.62 ± 0.071	1.4 ± 0.054	1.85 ± 0.045
LASIPDIFITPTPVVTI [SSN2]	1.65 ± 0.054	1.45 ± 0.098	1.63 ± 0.044	1.71 ± 0.054
LCAGANNPKIQTKDSVK [IRR1]	2.99 ± 0.1	3.13 ± 0.11	3.15 ± 0.057	3.29 ± 0.1
LCLEKLMCLSSKYCEKS [YCS4]	2.34 ± 0.087	2.27 ± 0.18	1.92 ± 0.059	1.55 ± 0.051
LCVLDYDNIDIQRGRIL [RPB7]	1.93 ± 0.1	3.08 ± 0.13	2.42 ± 0.12	1.96 ± 0.1
LDAKNKVFVPPKSKSLP [RPO31]	3.03 ± 0.062	3.37 ± 0.085	2.72 ± 0.055	2.71 ± 0.075
LDDDSIVNHEQDLPKIN [SRB4]	2.92 ± 0.082	2.99 ± 0.09	2.81 ± 0.063	2.7 ± 0.14
LDDITDSNTTEILTSVD [SIR4]	3.18 ± 0.072	2.94 ± 0.069	3.08 ± 0.065	3.26 ± 0.066
LDDLVVLKKKNIQKKQP [RRP6]	1.38 ± 0.061	2.08 ± 0.12	2.34 ± 0.14	1.44 ± 0.079
LDDQIFVCEKSIEFAKR [RPN6]			1.27 ± 0.16	
LDEVDAALDITNVQRIA [SMC1]	3.06 ± 0.098	3.14 ± 0.1	3.16 ± 0.087	3.16 ± 0.096
LDFIGRRGTALGIKKEK [RPB2]	2.03 ± 0.097	2.27 ± 0.059	2.07 ± 0.08	1.68 ± 0.075
LDISVFLLEKAGERKIP [TAF14]	2.43 ± 0.072	2.44 ± 0.063	2.16 ± 0.061	2.26 ± 0.078
LDKHERKWMEEKADYER [YIL149C/MLP2]	3.35 ± 0.15	2.66 ± 0.13	3.25 ± 0.12	2.8 ± 0.094
LDKLDEILYYQIKTLPE [AAR2]	2.97 ± 0.14	3 ± 0.13	3.25 ± 0.15	2.89 ± 0.13
LDLKECYQFAEYLFKPQ [ARP7]	3.06 ± 0.08	3.03 ± 0.063	2.97 ± 0.059	3.05 ± 0.084
LDLLRPVVRAPTVKYNR [RPL13A]	2.38 ± 0.2	1.7 ± 0.17	2.08 ± 0.11	1.64 ± 0.13
LDSMIELFKDYKPGSIT [MED1]	1.94 ± 0.047	1.82 ± 0.1	1.99 ± 0.052	2.15 ± 0.074
LDTQLITLLPSSLKESS [SNF12]				2.89 ± 0.24
LDVDPAKRIRVSHHATT [RPB2]	3.04 ± 0.06	2.79 ± 0.082	3 ± 0.044	3.02 ± 0.06
LDYVRTPAAATSPIDIR [SNF2]	2.45 ± 0.063	2.14 ± 0.077	2.36 ± 0.045	2.33 ± 0.056
LEASYSKSYTPRKLVLS [SMC4]	2.52 ± 0.059	2.11 ± 0.088	2.22 ± 0.05	2.31 ± 0.043
LEEITQYEHLIKGIREY [YDL116W/NUP84]	3.07 ± 0.13	2.94 ± 0.2	2.81 ± 0.14	2.35 ± 0.22

Sequence	protein stability index (pdr5∆)	protein stability index (san1∆)	protein stability index (ubr1∆)	protein stability index (doa10∆)
LEEKLYQMQSNYESVFT [YIL149C/MLP2]	1.71 ± 0.028	2.52 ± 0.068	2.57 ± 0.045	2.24 ± 0.052
LEELAETFQDTFSGALG [FAS2]	3.06 ± 0.077	3.21 ± 0.05	3.31 ± 0.067	2.95 ± 0.065
LEFYKDKFFNEVNKSEL [SIR3]	3.27 ± 0.058	3.25 ± 0.043	3.43 ± 0.064	3.31 ± 0.066
LEKVVPLINVVVDILSA [BRR2]			1.26 ± 0.19	
LELGSCFSQENIEEMAR [SIN4]	2.21 ± 0.073	2.64 ± 0.078	2.64 ± 0.073	2.02 ± 0.06
LELIGVLSINPDMYERK [MED7]	2.98 ± 0.086	2.89 ± 0.053	2.73 ± 0.061	2.73 ± 0.077
LELLNQLDGFSSDDRVK [RPT5]	3.15 ± 0.056	2.96 ± 0.051	3.03 ± 0.046	3.07 ± 0.064
LELQVAQAFVELENSSP [RPS7A]	3.14 ± 0.15	2.92 ± 0.19	1.85 ± 0.11	3.15 ± 0.14
LELVNTPLTENILIASL [YCG1]	1.62 ± 0.042	1.93 ± 0.083	2.27 ± 0.037	1.66 ± 0.052
LEMLKPCVEDGFVIQDR [RPB2]	3.29 ± 0.12	3.19 ± 0.19	3.23 ± 0.077	3.17 ± 0.086
LEQFMERNNIGEICKNY [YDL116W/NUP84]	2.6 ± 0.076	2.72 ± 0.14	2.44 ± 0.069	2.69 ± 0.11
LEQMELSILKGDYSQAT [RPN5]	2.91 ± 0.068	2.94 ± 0.11	2.64 ± 0.062	2.86 ± 0.079
LESWWLVLGEVSKKELY [BRR2]	1.39 ± 0.14	1.11 ± 0.17		1.68 ± 0.16
LFGAKPQNTTATTGGLF [YGR119C/NUP57]	3.06 ± 0.076	2.97 ± 0.12	2.59 ± 0.089	2.7 ± 0.084
LFGMCESLYEPNLEPED [PUP3]	3.53 ± 0.2	3.32 ± 0.081	3.27 ± 0.1	2.77 ± 0.19
LFHFEEDEGEELTDEYL [PRP8]	3.01 ± 0.09	3.44 ± 0.06	3 ± 0.12	3.52 ± 0.14
LFKALKVILNERGGKFH [RGR1]	2.64 ± 0.068	2.17 ± 0.094	2.64 ± 0.059	2.44 ± 0.075
LFKKFNNDFKLSIDKVL [RET1]	1.8 ± 0.11	2.15 ± 0.15	2.67 ± 0.093	1.66 ± 0.12
LFKRDCNQMENLLESIT [YCS4]	2.17 ± 0.12		2.38 ± 0.22	
LFLIIQCYKIYDLVILK [YMR129W/POM152]	1.2 ± 0.045	1.16 ± 0.085	1.16 ± 0.044	1.29 ± 0.063
LFLRGDSVIVVLKTPVE [SMD2]	2.42 ± 0.093	2.78 ± 0.083	2.38 ± 0.14	2.63 ± 0.12
LFPEQQTKEIKTERVED [RPL6B]	3.29 ± 0.079	3.46 ± 0.061	3.38 ± 0.063	3.55 ± 0.074
LFSSRRLQAKRLKDVEW [RMP1]	2.79 ± 0.059	3.1 ± 0.079	1.68 ± 0.065	2.62 ± 0.084
LGGPITKESQPTIEEDL [FAS2]	3.19 ± 0.15	2.77 ± 0.18	2.96 ± 0.069	3.02 ± 0.21
LGILKKKRFDEFMAGFN [SMC4]	2.15 ± 0.13	1.88 ± 0.19	1.87 ± 0.078	2.15 ± 0.11

Source: the supplement of paper PMC9732359
